Test results: the RNAGym collection of RNA variant scans (doi:10.1073/pnas.2313332121)

B1: TPR t1 (parent)
chain: GACCAAUCUGCCCUCAGAGCUCGAGAACAUCUUCGGAUGCAGAGGAGGCAGGCUUCGGUGGCGCGAUAGCGCCAACGUCCUCAACCUCCAAUGCAUCCCACCACAUGAUGAUGCCUGAAGAGCCUUGGUUUUUUG

Variants of: B1
Experiment: polymerase ribozyme fitness, log enrichment relative to wild type (log ratio); higher = more active; in vitro selection for triplet polymerase activity
How it was run: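 Mutant libraries for each subunit of a heterodimeric triplet polymerase ribozyme were made by PCR and then transcribed. Each library underwent one round of in vitro selection in triplicate: annealing with a biotinylated primer, the partner subunit and triplets, frozen incubation at −7 °C, gel excision of extended constructs, streptavidin-bead capture and RT-PCR. Input and output libraries were Illumina-sequenced, and only genotypes with ≥10 input reads and ≥1 read per output were kept. Fitness is the logarithm, base 2, of genotype enrichment over wild-type enrichment, computed from inverse-variance-weighted replicate averages.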

Row | Variant | polymerase ribozyme fitness (log ratio)
1 | GACCAAUCUGCCCUCAGAGCUCGAGAACAUCUUCGGAUGCAGAGGAGGCAGGCUUCGGUGGCGCGAUAGCGCCAACGUCCUCAACCUCCAAUGCAUCCCAACAAAUGAUGAUGCCUGAAGCGCCUUGGUUUUUUG [C101A C104A A121C] | -0.368
2 | GACCAAUCUGCCCUCAGAGCUCGAGAACAUCUUCGGAUGCAGAGGAGGCAGGCUUCGGUGGCGCGAUAGCGCCAACGUCCUCAACCUCCAAUGCAUCCCAUCACAUGAUGAUGCCUGAAGAACCUUGGUUUUUUG [C101U G122A] | -1.06
3 | GACCAAUCUGCCCUCAGAGCUCGAGAACAUCUUCGGAUGCAGAGGAGGCAGGCUUCGGUGGCGCGAUAGCGCCAACGUCCUCAACCUCCAAUGCAUCCCUCCACAUGAUGAUGCCUGAAGAGCCUUGGUUUUAUG [A100U U133A] | -0.657
4 | GACCAAUCUGCCCUCAGAGCUCGAGAACAUCUUCGGAUGCAGAGGAGGCAGGCUUCGGUGGCGCGAUAGCGCCAACGUCCUCAACCUCCAAUGCAUCCCUCCACAUGAUGAUGCCUGAAGAGCCUUGGUUUUGUG [A100U U133G] | -0.612
5 | GACCAAUCUGCCCUCAGAGCUCGAGAACAUCUUCGGAUGCAGAGGAGGCAGGCUUCGGUGGCGCGAUAGCGCCAACGUCCUCAACCUCCAAUGCAUCCCAGCACAAGAUGAUGCCUGAAGAACCUUGGUUUUUUG [C101G U106A G122A] | -0.277
6 | GACCAAUCUGCCCUCAGAGCUCGAGAACAUCUUCGGAUGCAGAGGAGGCAGGCUUCGGUGGCGCGAUAGCGCCAACGUCCUCAACCUCCAAUGCAUCCCGCCACAUGAUGAUGCCUGAAUAGCCUUGGUUUUUUG [A100G G120U] | -3.45
7 | GACCAAUCUGCCCUCAGAGCUCGAGAACAUCUUCGGAUGCAGAGGAGGCAGGCUUCGGUGGCGCGAUAGCGCCAACGUCCUCAACCUCCAAUGCAUCCCACAACAUGAUGAGGCCUGAAGAGCCUUGGUUUAUUG [C102A U112G U132A] | -2.53
8 | GACCAAUCUGCCCUCAGAGCUCGAGAACAUCUUCGGAUGCAGAGGAGGCAGGCUUCGGUGGCGCGAUAGCGCCAACGUCCUCAACCUCCAAUGCAUCCCAACACAUGAUGAGGCAUGAAGAGCCUUGGUUUUUUG [C101A U112G C115A] | -0.657
9 | GACCAAUCUGCCCUCAGAGCUCGAGAACAUCUUCGGAUGCAGAGGAGGCAGGCUUCGGUGGCGCGAUAGCGCCAACGUCCUCAACCUCCAAUGCAUCCCAGUACAUGAUGAUGCCUAAAGAGCCUUGGUUUUUUG [C101G C102U G117A] | -7.15
10 | GACCAAUCUGCCCUCAGAGCUCGAGAACAUCUUCGGAUGCAGAGGAGGCAGGCUUCGGUGGCGCGAUAGCGCCAACGUCCUCAACCUCCAAUGCAUCCCAUCACCUGAUGAUGACUGAAGAGCCUUGGUUUUUUG [C101U A105C C114A] | -6.11
11 | GACCAAUCUGCCCUCAGAGCUCGAGAACAUCUUCGGAUGCAGAGGAGGCAGGCUUCGGUGGCGCGAUAGCGCCAACGUCCUCAACCUCCAAUGCAUCCCAUCACAUAAUGAUGCCUGAAGAGCCUUGGUUUUUUG [C101U G107A] | -4.66
12 | GACCAAUCUGCCCUCAGAGCUCGAGAACAUCUUCGGAUGCAGAGGAGGCAGGCUUCGGUGGCGCGAUAGCGCCAACGUCCUCAACCUCCAAUGCAUCCCAACACAUGAUGAUGCCUGAAGAGCCUUGGUUCUUUG [C101A U131C] | -0.88
13 | GACCAAUCUGCCCUCAGAGCUCGAGAACAUCUUCGGAUGCAGAGGAGGCAGGCUUCGGUGGCGCGAUAGCGCCAACGUCCUCAACCUCCAAUGCAUCCCAUCACAUGAUGAUGCCUGAAGAGCCUUGGUUUUUUG [C101U] | -0.0389
14 | GACCAAUCUGCCCUCAGAGCUCGAGAACAUCUUCGGAUGCAGAGGAGGCAGGCUUCGGUGGCGCGAUAGCGCCAACGUCCUCAACCUCCAAUGCAUCCCAACACAUGAUGAUGCCUGAAGAGCCUUGGUUUUUUG [C101A] | -1.14
15 | GACCAAUCUGCCCUCAGAGCUCGAGAACAUCUUCGGAUGCAGAGGAGGCAGGCUUCGGUGGCGCGAUAGCGCCAACGUCCUCAACCUCCAAUGCAUCCCAGCACAUGAUGAUGCCUGAAGAGCCUUGGUUUUUUG [C101G] | -1.66
16 | GACCAAUCUGCCCUCAGAGCUCGAGAACAUCUUCGGAUGCAGAGGAGGCAGGCUUCGGUGGCGCGAUAGCGCCAACGUCCUCAACCUCCAAUGCAUCCCAUCACACGAUGCUGCCUGAAGAGCCUUGGUUUUUUG [C101U U106C A111C] | -0.324
17 | GACCAAUCUGCCCUCAGAGCUCGAGAACAUCUUCGGAUGCAGAGGAGGCAGGCUUCGGUGGCGCGAUAGCGCCAACGUCCUCAACCUCCAAUGCAUCCCAGCACAUGAUGAAGCCAGAAGAGCCUAUGUUUUUUG [C101G U112A U116A U126A G127U] | -2.86
18 | GACCAAUCUGCCCUCAGAGCUCGAGAACAUCUUCGGAUGCAGAGGAGGCAGGCUUCGGUGGCGCGAUAGCGCCAACGUCCUCAACCUCCAAUGCAUCCCACAACAUGAUGAUGUCUGAAGAGCCUUGGUUUUUUG [C102A C114U] | -3.69
19 | GACCAAUCUGCCCUCAGAGCUCGAGAACAUCUUCGGAUGCAGAGGAGGCAGGCUUCGGUGGCGCGAUAGCGCCAACGUCCUCAACCUCCAAUGCAUCCCAGCACAUGAUGAUGCCUAAAGAGCCUUGGUUUUUUG [C101G G117A] | -3.52
20 | GACCAAUCUGCCCUCAGAGCUCGAGAACAUCUUCGGAUGCAGAGGAGGCAGGCUUCGGUGGCGCGAUAGCGCCAACGUCCUCAACCUCCAAUGCAUCCCUCCACACGAUGAUGCCUGAAGAGCCUUGGUUUUUUG [A100U U106C] | -0.792
21 | GACCAAUCUGCCCUCAGAGCUCGAGAACAUCUUCGGAUGCAGAGGAGGCAGGCUUCGGUGGCGCGAUAGCGCCAACGUCCUCAACCUCCAAUGCAUCCCUCCACAUGAUGAGGCCUGAAGAGCCUUGGUUUUUUG [A100U U112G] | -0.123
